Results on two molecules are retold here after US20240279618A1, “RECEPTOR TYROSINE KINASE AGONIST, COMPOSITION FOR CELL CULTURE MEDIUM, AND […] MAINTENANCE COMPOSITION” (SEKISUI CHEMICAL CO., LTD., priority 2021, published 2024).

Type in all cases: cell-based
The test system of series [1] is NIH3T3 (mouse fibroblast cell line). As to the kind of experiment: Inhibition of growth factor activity of VHH homodimer by FGFR antagonist. The note with it: 10 or 100 ng/mL test substance, 20 nM NVP-BGJ398. As to the method:
The cell growth assay for FGF2 was performed according to the following procedure. On Day 1, a suspension including 2.5×10^4 cells/mL of NIH3T3 in DMEM of 10% CS and PS(+) was created, seeded on a CulturPlate-96 (White Opaque 96-well Microplate, manufactured by Perkin Elmer, Cat #6005680) at 100 μL/well, and cultured in a 5% CO2 incubator at 37° C. for 16 to 24 hours. On Day 2, the medium was replaced with FGF2 (PeproTech Cat #AF-100-18B) or serum-free PS(+) DMEM including various test substances, and the cells were further cultured for 2 days. On Day 4, the 96-well plate was left at room temperature for 30 minutes, and then 100 μL of Cell Titer Glo 2.0 Reagent (manufactured by Promega Corporation) at room temperature was added to each well, followed by stirring at 500 rpm for 2 minutes using a plate mixer. The plate was further left to stand for 8 minutes, and then the luminescence in each well was measured with a Synergy HTX plate reader (manufactured by BioTek) with a sensitivity set (Gain) of 200 and a measurement time of 1 s/well.
The addition amounts of FGF2 and #1L4 (hereinafter also referred to as “#1-L4-#1”), which is a dimer of VHH #1 with a linker […], were each 10 or 100 ng/mL.

Series [2] deals with human bone marrow-derived MSC. Nature of the series: MSC: evaluation of bone differentiation induction (Alizarin Red). Particulars: MSC after 3 passages with 20 ng/ml additive, 14 days induction. As to the method: A third passage was performed in a CellBIND® 24-well transparent multi-well plate, and then at a time of reaching 80% to 90% confluence, medium exchange was performed in MesenCult Stem Cell Osteogenic Differentiation Medium (PromoCell, C/N: C-28013) which is a medium for differentiation induction. Furthermore, for the cells as a negative control, D-MEM (10% FBS or 20% FBS) which is a culture medium was used for the medium exchange. The medium exchange was carried out every 2 to 4 days.
After 14 days from seeding, a 4% paraformaldehyde/phosphate buffer solution was added thereto at 500 μL/well, and the cells were left to stand for 2 hours or longer. After the immobilization, purified water was added thereto at 500 μL/well. 500 μL of an Alizarin Red solution (PG Research Co., Ltd., ARD-SET) was added to each well, which was left to stand at room temperature for 30 minutes. The Alizarin Red solution was removed, and washing was performed three times or more with purified water until the washing water became transparent. The water was completely removed, and the coating film was dried, and observed with a microscope to acquire an image. 500 μL of a calcifide nodule dissolution solution (PG Research Co., Ltd., ARD-SET) was added into the well and distributed for 10 minutes to elute the dye. 100 μL of the eluate was transferred to a 96-well plate and the absorbance at 450 nm was measured. […]

Series [3] concerns mouse fibroblast cell line NIH/3T3. Nature of the series: Promotion of fibroblast growth by VHH (homodimer), cell growth assay. Particulars: NIH/3T3, serum-free, 2 days, 2-fold dilution series, 4-parameter fit; read-out: EC50 of the growth of cultured fibroblasts. As to the method:
A mouse fibroblast cell line NIH/3T3 was used as a fibroblast. A mouse fibroblast cell line NIH/3T3 was obtained from ECACC through a domestic agent, subjected to extended culture, then cryopreserved at −80° C. using CellBanker1 plus (manufactured by ZENOAQ), and used. […]
The cell growth assay for bFGF was performed according to the following procedure. […] The plate was further left to stand for 8 minutes, and then the luminescence in each well was measured with a Synergy HTX plate reader (manufactured by BioTek) with a sensitivity set (Gain) of 200 and a measurement time of 1 s/well. […]
The measurement was performed at three points at each concentration of the test substance, and the conditions were set such that for the measurement at a single concentration, 100 ng/mL of bFGF was set as a positive control and a condition of no addition was set as a negative control. […] The EC50 measurement data were fitted to 4-parameter fit according to an ordinary method by control software attached to a plate reader, and an EC50 value was calculated.

Series [4] has the same test system. As to the kind of experiment: Solution preservation stability of bFGF and VHH homodimer, read out by fibroblast growth. Particulars: 0.5 mg/mL in D-PBS, fibroblast growth on second day. As for the experimental part:
bFGF and the VHH homodimer (SEQ ID NO: 23, sequence name: #1-LA-#1, sometimes referred to as a single-domain antibody) was mixed with a D-PBS solution (Fujifilm Wako Pure Chemical Corporation) so that the concentration was 0.5 mg/mL, and incubation was performed at 37° C. for 1 week. Then, the growth promoting abilities for fibroblast growth of four test subjects, which are an incubated VHH homodimer, a pre-incubated bFGF, a VHH homodimer after thawing from freeze-preservation, and bFGF immediately after solutionizing with D-PBS from a freeze-dried product, were evaluated. As a negative control, culture without any of the bFGF and the VHH homodimer was also performed at the same time. The culture conditions were the same as those in Item 1 and Item 2 of the present Example, and the cell growth was evaluated by the number of cells on the second day after the start of culture.

The term EC50 denotes the midpoint of the concentration-response curve. Take “FGF2: fibroblast growth factor (basic), human, recombinant (154aa), positive control; SEQ ID NO: 58 [reference compound]”: the “cell growth activity with addition of NVP-BGJ398” value in series [1] is “inhibited”. In addition, the “bone differentiation (Alizarin Red)” value in series [2] is “Differentiation was similarly recognized”. For the same molecule, the EC50 in series [3] is 5.1 nM. Besides, in series [4], the “cell growth activity after incubation at 37° C. for 1 week” value is reported as “the same as that in the case of no addition”.

B1: #1-L4-#1: dimer of VHH #1 with linker L4 (GSEGKSSGSGSESKST), SEQ ID NO: 23 (protein)
VHH: QLQLVESGGGSVQAGGSLRLSCAASRSLSRFNVWTWYRQAPVKQRELVASITKSGDTNYAESVKGRFIISRDDDKNTVYLQMNNLKSEDTGIYYCAGSYYSGSYLYPSPGGFSVWGQGTQVTVSSGSEGKSSGSGSESKSTQLQLVESGGGSVQAGGSLRLSCAASRSLSRFNVWTWYRQAPVKQRELVASITKSGDTNYAESVKGRFIISRDDDKNTVYLQMNNLKSEDTGIYYCAGSYYSGSYLYPSPGGFSVWGQGTQVTVSS
modifications: #1-L4-#1
Regarding B1, the “cell growth activity with addition of NVP-BGJ398” value in series [1] is on record as “inhibited”. In series [2], the “bone differentiation (Alizarin Red)” value was “Differentiation was similarly recognized”. In addition, in series [3], the EC50 was 11.6 nM. Further, the “cell growth activity after incubation at 37° C. for 1 week” value in series [4] is listed as “exhibited the same cell growth activity as that of bFGF”.
